What is called stoichiometry N is a count of units in the complex or per binding partner.

Drawing on doi:10.1101/2021.07.08.451670, this text covers stoichiometry N for one substance.

In the experiment the target is P-GltPh (S279E/D405N) (UniProt O59010). In words: cryo-EM structure.

In the case of “P-GltPh (S279E/D405N) (from UniProt O59010 1-417) (natural protein)”, the stoichiometry N came out at 3.
